# Measured values reported in the supplement of paper PMC10724198.
# ± gives the standard deviation of the averaged measurements.
# Test system: Saccharomyces cerevisiae
# Test: protein stability index of tFT-peptide fusion (C-terminal peptide) (PSI (0-1 scale)); higher = more stable (slower turnover)
# Conditions: genetic background: wild type; temperature: 30 C
# Method: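 Multiplexed protein stability (MPS) profiling in S. cerevisiae. Random 12-aa peptides (tFT-X12 library) are fused to the C-terminus of a sfGFP-mCherry tandem fluorescent timer, after mCherry and a GGGS linker. Cells are FACS-sorted into 8 mCherry/sfGFP bins and deep-sequenced. The protein stability index (PSI) is the read-weighted bin average, scaled from 0 (unstable) to 1 (stable). Only peptides with >10 reads are reported; cells were grown at 30 °C in SC-His with glucose.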
# 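Note: PSI is a weighted mean of sequencing reads over stability bins, variants kept only with over 10 reads, mCherry proximal and sfGFP distal, peptide attached via GGGS linker.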
row,Sequence,protein stability index
1,ELLPFPPPSAPT,0.719 ± 0.022
2,ELLRTGRVLDRE,0.71 ± 0.0076
3,ELRPSTTPLHPS,0.68268 ± 0.00044
4,ELVGLAHVLELA,0.655 ± 0.084
5,ELWGGGFLLMLG,0.599 ± 0.021
6,EMTRELLMRVSK,0.704 ± 0.015
7,EMYLKTPVDRKL,0.678 ± 0.038
8,ENMVLQKRGIKV,0.5024 ± 0.0049
9,ENQKKSKTNRKK,0.658 ± 0.036
10,EPAAGFAICRHH,0.67 ± 0.02
11,EPIKEKKKMGSR,0.63 ± 0.056
12,EPRVGCVGFGIT,0.638 ± 0.013
13,EPSAPYYCVTKG,0.7279 ± 0.002
14,EQENATDRRGRE,0.644 ± 0.026
15,EQFLRCEALGAW,0.661 ± 0.02
16,EQNRINLNRSGL,0.762 ± 0.23
17,EQRSKSHVLPPR,0.737 ± 0.009
18,ERAKMYPKKKIR,0.64 ± 0.067
19,EREALKSCIIRA,0.641 ± 0.014
20,EREGREGKGRER,0.777 ± 0.079
21,ERKKDGRKVRKK,0.658 ± 0.012
22,ERKNTTSEFTNL,0.684 ± 0.0079
23,ERRERGGERNTP,0.658 ± 0.01
24,ERSHGEKGVFYL,0.73 ± 0.031
25,ESDLRFPGVPCI,0.696 ± 0.011
26,ESHSIIRRRSWW,0.7797 ± 0.0037

row,Sequence,protein stability index
1,ESIEVGTGDWVG,0.653 ± 0.013
2,ESKKYQQDNITR,0.608 ± 0.039
3,ESKRKLHSSRYS,0.6875 ± 0.0032
4,ESPPVCFLFSSC,0.711 ± 0.021
5,ESRGKKPDTYTQ,0.707 ± 0.074
6,ESRNEPDQRLCQ,0.686 ± 0.013
7,ESRPRVGLERER,0.676 ± 0.053
8,ESSVLGFWIMSL,0.629 ± 0.041
9,ETARENENTIGE,0.6575 ± 0.0065
10,ETCTRHHPRHNS,0.687 ± 0.043
11,ETEASKGSRNEE,0.627 ± 0.065
12,ETGGQTELKVVH,0.683 ± 0.084
13,ETHHITHHQWKV,0.683 ± 0.05
14,ETKFLVDRKTDI,0.67 ± 0.012
15,ETQEAKGGMTRQ,0.667 ± 0.0091
16,ETSERIEDKDGI,0.698 ± 0.051
17,EVFGAGRNDPGS,0.689 ± 0.018
18,EVGLSVLLPGGG,0.675 ± 0.022
19,EVIRGNEGGKER,0.708 ± 0.018
20,EVPLGLIRLPSV,0.695 ± 0.06
21,EVTEVCTIKVHV,0.577 ± 0.0097
22,EVTVSGEEQRAG,0.6881 ± 0.0044
23,EVVGILSSVNIA,0.647 ± 0.03
24,EVWMGIRSLSVV,0.634 ± 0.096
25,EWCAVYDQGNRF,0.818 ± 0.11
26,EWGWGRIVNGRE,0.6869 ± 0.0032

row,Sequence,protein stability index
1,EWNKMTKEKNVI,0.686 ± 0.017
2,EWNWRSVYGFGE,0.748 ± 0.027
3,EYTRGIRKTRRA,0.608 ± 0.051
4,FACLGPLRRRLG,0.682 ± 0.012
5,FAECVCVVCPLV,0.6319 ± 0.0053
6,FAFLPYKGISSS,0.682 ± 0.05
7,FALERLWFMSVG,0.67 ± 0.031
8,FALPPPPHLNPP,0.6248 ± 0.0021
9,FAPFVPGPSIKY,0.705 ± 0.074
10,FCCTPAPVPPST,0.689 ± 0.016
11,FCEASSSSRISA,0.744 ± 0.088
12,FCFFLLGLFCNL,0.6 ± 0.062
13,FCFLSALTCLCA,0.589 ± 0.021
14,FCGFLFRLSSVL,0.626 ± 0.025
15,FCGLWGVGGVAE,0.704 ± 0.025
16,FCLAPMLLPGSF,0.6785 ± 0.0064
17,FCPSLFLNPHSC,0.6739 ± 0.00084
18,FCSDRPWGPCRR,0.579 ± 0.08
19,FCSSSSFMCFVQ,0.629 ± 0.0082
20,FDAWTHAGMYNW,0.757 ± 0.058
21,FDPSFLSVCRSK,0.72 ± 0.021
22,FDRQQDLTGMEM,0.769 ± 0.078
23,FERVLVFENRKY,0.728 ± 0.051
24,FESYLRLGLGGR,0.667 ± 0.09
25,FEVSGYRNGRAL,0.694 ± 0.0074
26,FFDSPHCRYACV,0.744 ± 0.009

row,Sequence,protein stability index
1,FFFYFPSLNSFV,0.696 ± 0.073
2,FFPLRLLPLVPR,0.645 ± 0.0063
3,FFPPPPPATPPA,0.663 ± 0.072
4,FFSFTTPHLSFA,0.688 ± 0.054
5,FFSISPLLPLPF,0.714 ± 0.2
6,FFSLVHVLFYGF,0.54037 ± 0.00016
7,FFTFTMSIPRWL,0.617 ± 0.055
8,FFVCCGTRLIGL,0.716 ± 0.04
9,FFVRVVGDLRWE,0.583 ± 0.019
10,FFWGRFCLGLWS,0.568 ± 0.067
11,FFWGVFFLGLGW,0.566 ± 0.071
12,FGCLFFSPLSIH,0.745 ± 0.043
13,FGCSRRERKGRG,0.826 ± 0.016
14,FGDRGLGIIYFK,0.7277 ± 0.0023
15,FGFYTYFRPGLG,0.698 ± 0.017
16,FGGGGRGGLLWC,0.764 ± 0.06
17,FGGGSWSMRWSW,0.639 ± 0.024
18,FGGGWGGGVVLV,0.691 ± 0.0086
19,FGGNISIPRSCD,0.7233 ± 0.004
20,FGLWSSCGWWWT,0.64 ± 0.041
21,FGNFCCRWSLGP,0.66 ± 0.12
22,FGPAQGYCLVGA,0.544 ± 0.025
23,FGRDTDIYLASL,0.691 ± 0.037
24,FGSLCPRAHSLV,0.71 ± 0.011
25,FGSLMFCLLPLH,0.6527 ± 0.0026
26,FGSRYLGVVSGC,0.656 ± 0.037

row,Sequence,protein stability index
1,FGVGWGDGFFGV,0.716 ± 0.059
2,FHGSIVQLTFRA,0.603 ± 0.047
3,FHVFTRTVGSVL,0.643 ± 0.075
4,FIHVPAYGNVCV,0.611 ± 0.058
5,FISPLNFPARPS,0.7181 ± 0.0015
6,FIWRFYSLPLGC,0.623 ± 0.069
7,FLASPHPPGLSP,0.693 ± 0.033
8,FLCILTNGCCYQ,0.765 ± 0.052
9,FLFASSGFLGRF,0.67 ± 0.036
10,FLFGLGEIDGVR,0.84 ± 0.034
11,FLFPTLSPITGC,0.612 ± 0.05
12,FLLNPPSLPCYY,0.727 ± 0.034
13,FLLPAGLWSSCC,0.66 ± 0.043
14,FLLSFPCAHFLL,0.598 ± 0.056
15,FLLSILPFISFC,0.527 ± 0.1
16,FLLVLVPFCALF,0.547 ± 0.11
17,FLNLPLSAFVLL,0.583 ± 0.062
18,FLPHSPSLPQLP,0.67 ± 0.013
19,FLPPPLAAPFLF,0.669 ± 0.059
20,FLQAKSQGEHFR,0.694 ± 0.012
21,FLRGSSKSISAR,0.677 ± 0.061
22,FLSAGLSILAAP,0.683 ± 0.043
23,FLSFECRFPFQW,0.795 ± 0.069
24,FLSFRLCTAAPV,0.559 ± 0.031
25,FLSLGVIARYFL,0.6325 ± 0.0042
26,FLSPPSPWPSFP,0.688 ± 0.059

row,Sequence,protein stability index
1,FLSSPPPPLRVP,0.694 ± 0.054
2,FLTPPIPLFSRL,0.783 ± 0.058
3,FLTPPSLSLPPP,0.68 ± 0.0084
4,FMDLVRSVPTGC,0.706 ± 0.046
5,FMFFMGLFVGGW,0.5401 ± 0.0026
6,FMSRDPKDDTET,0.685 ± 0.076
7,FMYSGIVAIPRG,0.661 ± 0.025
8,FNCIFHMLRFLR,0.656 ± 0.074
9,FPCIPAAPPIFL,0.71 ± 0.015
10,FPFFSSIPPRVV,0.574 ± 0.069
11,FPFLPPRSVSPP,0.696 ± 0.12
12,FPGGGARAGVGV,0.724 ± 0.025
13,FPGVRNGSRFPP,0.637 ± 0.0067
14,FPLLAPAVSPHT,0.662 ± 0.071
15,FPPFPPLVPSPP,0.742 ± 0.0049
16,FPPIDLPPPSPS,0.687 ± 0.027
17,FPPLFPLSTFLL,0.56 ± 0.04
18,FPPLPPPPPPLN,0.743 ± 0.065
19,FPPPPFFFIPLP,0.724 ± 0.048
20,FPPRPPPSPSAH,0.675 ± 0.027
21,FPPTGPPYFPPT,0.615 ± 0.062
22,FPPYHTSSGFDA,0.733 ± 0.066
23,FPSLPSPSPSSH,0.684 ± 0.031
24,FPTFSPRPHPLS,0.72 ± 0.0098
25,FPTSPPLIALLD,0.6692 ± 0.0029
